Experimental data published in article PMC8996997, “YY1 Oligomerization Is Regulated by Its OPB Domain and Competes with Its Regulation of Oncoproteins” (Cancers, 2022).

Biological target: T1, His×6-YY1(wt) (human, UniProt P25490 1-414)
T1 construct: Yin Yang 1 (YY1), wild type; also called Yin Yang 1; source: bacteria, recombinant, purified
Assay: SPR; Biacore T200; about 12,000 RU of His×6-YY1(wt) immobilised by amine coupling on a CM5 chip; analytes at 62.5, 125, 250, 500 and 1000 nM
Settings: both partners purified

B1: His×6-YY1(260–414) (domain or fragment, human, UniProt P25490 260-414, looked up)
chain: LPPGGIPGIDLSDPKQLAEFARMKPRKIKEDDAPRTIACPHKGCTKMFRDNSAMRKHLHTHGPRVHVCAECGKAFVESSKLKRHQLVHTGEKPFQCTFEGCGKRFSLDFNLRTHVRIHTGDRPYVCPFDGCNKKFAQSTNLKSHILTHAKAKNNQ
notes: source: bacteria, recombinant, purified
- binding result: binds
